From the supplement of paper PMC7877785
± gives the uncertainty stated by the source.

Experiment: self-splicing fitness, log relative to wild type (ln ratio); higher = more splicing; Tetrahymena group I intron in knt gene, E. coli kanamycin selection, DiMSum; sequences stand for … in CUCUCU…GGAGGGAAAAGUUAUCAGGCAUGCACCUGGUAGCUAGUCUUUAAACCAAUAGAUUGCAUCGGUUUAAAAGGCAAGACCGUCAAAUUGCGGGAAAGGGGUCAACAGCCGUUCAGUACCAAGUCUCAGGGGAAACUUUGAGAUGGCCUUGCAAAGGGUAUGGUAAUAAGCUGACGGACAUGGUCCUAACCACGCAGCCAAGUCCUAAGUCAACAGAUCUUCUGUUGAUAUGGAUGCAGUUCACAGACUAAAUGUCGGUCGGGGAAGAUGUAUUCUUCUCAUAAGAUAUAGUCGGACCUCUCCUUAAUGGGAGCUAGCGGAUGAAGUGAUGCAACACUGGAGCCGCUGGGAACUAAUUUGUAUGCGAAAGUAUAUUGAUUAGUUUUGGAGUACUCGUGGUCG
Outline: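 Library with all eight P1ex-region intron nucleotides randomised, intron inside the knt kanamycin-resistance gene on pET-22b(+), in E. coli BL21(DE3). Cells grew overnight at 37°C or 30°C on LB agar with or without 25 μg/mL kanamycin (plus 100 μg/mL carbenicillin, 50 μM IPTG, 0.2% rhamnose), in six replicate transformations. Pooled colonies were amplicon-sequenced on Illumina HiSeq 2500. DiMSum fitness is the error-weighted combination of wild-type-normalised replicate fold changes, kanamycin versus none.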

| Sequence | self-splicing fitness (ln) (30 °C) | self-splicing fitness (ln) (37 °C) |
| --- | --- | --- |
| UAUAAGCAAUAUUACGUCGU | -2.37 ± 0.12 | -1.69 ± 0.17 |
| UGCGAGCAAUAUUACGGGAU | -3.78 ± 0.35 | -2.21 ± 0.28 |
| GUUAAGCAAUAUUACGUCAU | -1.5 ± 0.1 | -0.179 ± 0.12 |
| UAGAAGCAAUAUUACGCGUG | -1.17 ± 0.13 | -0.211 ± 0.13 |
| CCGUAGCAAUAUUACGACCU | -0.833 ± 0.34 | – |
| GAACAGCAAUAUUACGGGGA | -1.6 ± 0.087 | -0.774 ± 0.09 |
| AUGUAGCAAUAUUACGCGAU | -2.09 ± 0.2 | -2.55 ± 0.24 |
| AGAUAGCAAUAUUACGCAGC | -2.44 ± 0.22 | -1.43 ± 0.4 |
| AUUAAGCAAUAUUACGAACA | -1.43 ± 0.14 | -0.718 ± 0.17 |
| UACCAGCAAUAUUACGACGC | -2.41 ± 0.12 | -1.73 ± 0.15 |
| UAGAAGCAAUAUUACGGUUC | -3.98 ± 0.25 | -2.31 ± 0.19 |
| CGUGAGCAAUAUUACGAUAU | -2.77 ± 0.14 | -2.71 ± 0.23 |
| UGCAAGCAAUAUUACGGGCC | -1.31 ± 0.12 | -1.26 ± 0.14 |
| CCUGAGCAAUAUUACGGGAC | -4.19 ± 0.46 | -2.08 ± 0.27 |
| AGCCAGCAAUAUUACGCCCU | 0.0781 ± 0.11 | 0.234 ± 0.13 |
| CAUAAGCAAUAUUACGCAGG | -1.84 ± 0.18 | -1.22 ± 0.18 |
| ACCCAGCAAUAUUACGGUUC | -2.22 ± 0.072 | -1.32 ± 0.094 |
| CUCAAGCAAUAUUACGGCAU | -2.66 ± 0.18 | -1.58 ± 0.24 |
| CUCUAGCAAUAUUACGCCGC | – | -3.15 ± 0.43 |
| CAUAAGCAAUAUUACGGUCU | -2.8 ± 0.3 | -1.51 ± 0.2 |
| GACAAGCAAUAUUACGAGUA | -2.1 ± 0.12 | -0.706 ± 0.098 |
| UUGCAGCAAUAUUACGAAGA | -2.37 ± 0.21 | -1.57 ± 0.18 |
| GCUCAGCAAUAUUACGGUGG | -2.89 ± 0.17 | -1.41 ± 0.11 |
| UGGAAGCAAUAUUACGAGAC | -3.31 ± 0.48 | – |
| UAGCAGCAAUAUUACGUAAA | -1.73 ± 0.099 | -1.32 ± 0.13 |
| UUUUAGCAAUAUUACGAAAU | -2.34 ± 0.34 | -1.72 ± 0.27 |

| Sequence | self-splicing fitness (ln) (30 °C) | self-splicing fitness (ln) (37 °C) |
| --- | --- | --- |
| GUGAAGCAAUAUUACGCCGU | -1.23 ± 0.13 | -0.0879 ± 0.21 |
| GGAAAGCAAUAUUACGUCUU | -0.00168 ± 0.13 | -0.112 ± 0.15 |
| AAUGAGCAAUAUUACGUAAG | -2.38 ± 0.22 | -2.2 ± 0.23 |
| AAAUAGCAAUAUUACGCCUA | -0.886 ± 0.13 | -0.23 ± 0.13 |
| GUUCAGCAAUAUUACGUGGC | -2.08 ± 0.1 | -2.25 ± 0.16 |
| CUACAGCAAUAUUACGGUCG | -0.256 ± 0.068 | 0.417 ± 0.082 |
| GGCUAGCAAUAUUACGUUCG | -0.933 ± 0.097 | -0.427 ± 0.12 |
| CAGCAGCAAUAUUACGUCAA | -2.85 ± 0.21 | -3.37 ± 0.3 |
| UUAGAGCAAUAUUACGGGGA | -2.48 ± 0.21 | -1 ± 0.2 |
| CCAAAGCAAUAUUACGUUCU | -3.78 ± 0.26 | -2.3 ± 0.23 |
| GCAUAGCAAUAUUACGGUAG | -3.52 ± 0.26 | -3.01 ± 0.3 |
| AGUGAGCAAUAUUACGCGUG | -4.06 ± 0.28 | -2.34 ± 0.15 |
| GGUCAGCAAUAUUACGACGA | -0.308 ± 0.072 | 0.501 ± 0.11 |
| AAAAAGCAAUAUUACGUUCG | -0.479 ± 0.078 | -1.04 ± 0.1 |
| GUAUAGCAAUAUUACGUUGA | -2.87 ± 0.21 | -1.41 ± 0.18 |
| CAACAGCAAUAUUACGACAG | -0.131 ± 0.073 | 0.499 ± 0.09 |
| CGCGAGCAAUAUUACGGGGA | -1.94 ± 0.28 | -2.41 ± 0.29 |
| AUUGAGCAAUAUUACGUGAG | -2.08 ± 0.11 | -1.97 ± 0.14 |
| UUAUAGCAAUAUUACGAAGC | -2.27 ± 0.42 | – |
| GGGAAGCAAUAUUACGCAAC | -3.36 ± 0.17 | -1.03 ± 0.18 |
| ACCCAGCAAUAUUACGAUGA | -1.43 ± 0.09 | -0.256 ± 0.088 |
| GCACAGCAAUAUUACGUGCU | -3.6 ± 0.1 | -2.75 ± 0.12 |
| UAAGAGCAAUAUUACGACGG | -3.85 ± 0.26 | -2.54 ± 0.21 |
| AACGAGCAAUAUUACGUCCA | -2.92 ± 0.3 | -1.92 ± 0.21 |
| AAUUAGCAAUAUUACGAAGG | -2.79 ± 0.23 | -1.88 ± 0.35 |
| GCCCAGCAAUAUUACGGGUU | -3.01 ± 0.12 | -3.4 ± 0.19 |

| Sequence | self-splicing fitness (ln) (30 °C) | self-splicing fitness (ln) (37 °C) |
| --- | --- | --- |
| GGCGAGCAAUAUUACGGGUG | -2.31 ± 0.12 | -1.96 ± 0.14 |
| AAGUAGCAAUAUUACGGAGG | -3.89 ± 0.33 | -2.5 ± 0.33 |
| AGUAAGCAAUAUUACGACGC | -0.403 ± 0.15 | 0.541 ± 0.17 |
| UAGCAGCAAUAUUACGUAAU | -3.27 ± 0.12 | -0.695 ± 0.089 |
| AAUAAGCAAUAUUACGCGGC | -2.74 ± 0.24 | -2.03 ± 0.33 |
| CGGAAGCAAUAUUACGGUAA | -3.11 ± 0.23 | -2.23 ± 0.24 |
| CGUCAGCAAUAUUACGUUUU | -3.25 ± 0.098 | -1.55 ± 0.094 |
| AGCCAGCAAUAUUACGCCGC | -2.98 ± 0.28 | -3.25 ± 0.37 |
| GAGAAGCAAUAUUACGCGUA | -1.03 ± 0.12 | -1.1 ± 0.13 |
| CCAUAGCAAUAUUACGAAUC | -3.22 ± 0.14 | -1.38 ± 0.17 |
| GCCCAGCAAUAUUACGCGGG | -3.71 ± 0.2 | -2.31 ± 0.22 |
| GGAAAGCAAUAUUACGUCAU | -2.34 ± 0.18 | -1.38 ± 0.18 |
| GUCUAGCAAUAUUACGCAAU | -0.524 ± 0.082 | -0.156 ± 0.082 |
| CCGGAGCAAUAUUACGGUGG | -3.8 ± 0.37 | -2.61 ± 0.36 |
| CUCUAGCAAUAUUACGCGGC | -2.81 ± 0.3 | -2.45 ± 0.3 |
| GUGGAGCAAUAUUACGUGAC | – | 1.74 ± 0.35 |
| UAAUAGCAAUAUUACGGUCA | -0.412 ± 0.11 | -0.333 ± 0.11 |
| GAGUAGCAAUAUUACGCCCG | -0.892 ± 0.21 | -1.03 ± 0.31 |
| AACUAGCAAUAUUACGUCCG | -1.74 ± 0.11 | -0.228 ± 0.13 |
| GUCCAGCAAUAUUACGUCUC | 0.725 ± 0.087 | -0.134 ± 0.087 |
| CCGGAGCAAUAUUACGAUCA | -3.1 ± 0.42 | -2.63 ± 0.44 |
| CCCGAGCAAUAUUACGCAAG | -2.73 ± 0.27 | – |
| CACUAGCAAUAUUACGGCCG | 0.0261 ± 0.086 | -0.0313 ± 0.12 |
| AGAAAGCAAUAUUACGACCC | 0.302 ± 0.21 | -0.444 ± 0.27 |
| GAAGAGCAAUAUUACGGGAA | -3.54 ± 0.47 | -1.72 ± 0.28 |
